Source: publication PMC10897327

How the values were obtained:
Assay in all cases: native gel or EMSA; NativePAGE 3-12% Bis-Tris gel with Coomassie G-250, immunoblot for 52K; purified MBP-52K fusion proteins with or without TEV protease cleavage for 1 h at room temperature
[1] = target: MBP-52K fusion protein, S28/75A (MBP tag not removed) (human adenovirus type C5 (Ad5))
[2] = target: recombinant WT 52K released from MBP-52K by TEV protease (human adenovirus type C5 (Ad5))
[3] = target: recombinant 52K S28/75D released from MBP-52K by TEV protease (human adenovirus type C5 (Ad5))
[4] = target: MBP-52K fusion protein, S28/75D (MBP tag not removed) (human adenovirus type C5 (Ad5))
[5] = target: recombinant 52K S28/75A released from MBP-52K by TEV protease (human adenovirus type C5 (Ad5))
[6] = target: MBP-52K fusion protein, wild type (MBP tag not removed) (human adenovirus type C5 (Ad5))

Question: How did the stoichiometry N [1] turn out when “MBP-52K fusion protein, S28/75A (MBP tag not removed) (natural protein)” was run?
Answer: 2

Question: How did the stoichiometry N [2] turn out when “recombinant WT 52K released from MBP-52K by TEV protease (natural protein)” was run?
Answer: 2

Question: For “recombinant 52K S28/75D released from MBP-52K by TEV protease (natural protein)”, which stoichiometry N [3] is on record?
Answer: 2

Question: With “MBP-52K fusion protein, S28/75D (MBP tag not removed) (natural protein)” as the substance, how does the stoichiometry N [4] read?
Answer: 2

Question: Which stoichiometry N [5] does the source give for “recombinant 52K S28/75A released from MBP-52K by TEV protease (natural protein)” here?
Answer: 2

Question: Which stoichiometry N [6] does the source give for “MBP-52K fusion protein, wild type (MBP tag not removed) (natural protein)” here?
Answer: 2
